Data on one molecule can be found in patent US20260234222A1.

This test concerns the target SARS-CoV-2 BQ.1 Spike antigen (SARS-CoV-2 Omicron BQ.1). As to the kind of experiment: cell-based or functional assay.

B1: Parental mAb 2 (antibody, V domains shown)
VH: QMQLMQSGAEVKKPGASVTVSCKASGDTFSDYRIHWVRQAPGQGLEWMGRMNPKSGDTNFAQKFQGRVTMTRDMSINTAYMTLSGLTFDDTALYYCASLLIVGGFDPLDDFEVWGQGTMVTISS
VL: QSALTQPPSASGSPGQSVTISCSGTSSDVGGYNFVSWYQHHPGKAPKILIYEVTKRPSGVPDRFSGSKSGNTASLTVSGLQAEDEADYYCSSYGGTNNLLFGGGTKLTVL
With B1, the Pseudovirion neutralization IC50 worked out at 10.1 µg/mL.
